Data published in the supplement of paper PMC10567573.
± gives the standard deviation.

Experiment: protein stability index of a GFP-peptide fusion (GPS, HEK-293T) (PSI 1-6); higher = more stable
[1] = treatment: DMSO, c terminus: a fixed tail appended
[2] = treatment: MLN4924 1 uM, 8 h, c terminus: a fixed tail appended
[3] = treatment: DMSO, c terminus: native
[4] = treatment: MLN4924 1 uM, 8 h, c terminus: native
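Also: 24-mer peptide tiles fused after GFP, lentivirally expressed, FACS-sorted into six equal bins by GFP/DsRed ratio, decoded by Illumina sequencing, PSI is the read-weighted mean bin number.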

Row | Sequence | protein stability index [1] | protein stability index [2] | protein stability index [3] | protein stability index [4]
1 | IFYFVIQRKKWVDLAWMITFYVRF [FADS1] | 2.6 ± 0.72 | 2.93 ± 0.94 |  | 
2 | VDDHTPWVKGSVPPPLDQYVKFDA [CLPTM1] | 3.99 ± 0.15 | 3.74 ± 0.24 |  | 
3 | FMRTDPVCQKLLLDAMNYHLMPFR [KLHL14] | 2.25 ± 0.19 | 2.28 ± 0.3 |  | 
4 | LYGGMNYRRLGGGVGVIKMTHCES [KLHL20] | 2.3 ± 0.25 | 2.85 ± 0.66 |  | 
5 | AERLEVSVDGLTLSPDPEERPGAE [ACBD3] | 5.29 ± 0.45 | 5.56 ± 0.3 |  | 
6 | KDGMAFQEALDPGPFDQGSPFAQE [ELF3] | 4.65 ± 0.69 | 4.94 ± 0.12 |  | 
7 | LRIRSVEGRKKAFSTCGSHLTVVA [OR3A1] | 2.43 ± 0.42 | 2.2 ± 0.47 |  | 
8 | LTTKGEMPVQLTSRREIRKIMGVE [ANKRD40] | 3.7 ± 0.048 | 3.85 ± 0.18 |  | 
9 | RQFLPEEFMKTLEKTGPQLTSRIK [DENND6A] | 3.55 ± 0.33 | 3.58 ± 0.43 |  | 
10 | DDSGGPTPSSYAPSHPPRPLLPLD [ZBTB22] | 4.54 ± 0.25 | 4.79 ± 0.22 |  | 
11 | QAQGARAGGSARRPDTGDDAAGHG [GMCL1] | 5.41 ± 0.4 | 5.57 ± 0.35 |  | 
12 | EILTLLQGVHQGAGFQDIPKRCLK [TSN] | 2.08 ± 0.3 | 2.41 ± 0.49 |  | 
13 | ERLAEAEKSQLIMQAEAEAASVRM [FLOT1] | 4.84 ± 0.39 | 4.66 ± 0.3 |  | 
14 | NYTATVRGLRGPNLTSPASITFTT [TNXB] | 2.66 ± 0.23 | 2.79 ± 0.41 |  | 
15 | QHNLRYSLENTLTESEARYSSQLS [KRT33B] | 4.11 ± 0.27 | 4.11 ± 0.21 |  | 
16 | ASAAARLGCNRQSWCLKRYDLEYW [TRIM14] | 2.29 ± 0.7 | 1.86 ± 0.27 |  | 
17 | IKPSNIFISRTSIPNAASEEGDED [WEE1] | 4.71 ± 0.24 | 4.97 ± 0.27 |  | 
18 | ATDYLRYKPVVLLQGLSLIVTWFM [SLC19A2] | 2.35 ± 0.12 | 2.42 ± 0.19 |  | 
19 | SWTAVTPQQTWASPAEVVDLTLDE [C18orf25] | 4.74 ± 0.21 | 4.73 ± 0.2 |  | 
20 | IIYKQTKGGVQNFNKDLVQDCGFE [CEP70] | 1.96 ± 0.42 | 2.66 ± 0.22 |  | 
21 | QRQVWLLFEYPESSGPARGIAIVS [KCNA3] | 2.69 ± 0.21 | 2.48 ± 0.77 |  | 
22 | CKKLHIPLKAQNDLDISRIKRGNT [P2RY14] | 3.44 ± 0.33 | 3.65 ± 0.14 |  | 

Row | Sequence | protein stability index [1] | protein stability index [2] | protein stability index [3] | protein stability index [4]
23 | YQLLATHVPTVWAIDQYRVCQEVL [RHOBTB1] | 2.61 ± 0.59 | 2.38 ± 0.47 |  | 
24 | IYDNAVQGLRRHEILQWVLQTDSQ [LRRC59] | 2.56 ± 0.2 | 2.64 ± 0.35 |  | 
25 | ILHPELTVDSMIPAYATTRIRSQI [GDAP1] | 2.52 ± 0.2 | 2.55 ± 0.17 |  | 
26 | LEPLKAIIQYRLPMKKNNNLYSWD [ACSBG2] | 2.57 ± 0.47 | 2.17 ± 0.2 |  | 
27 | SPPLSTEAHFMLQVADINDNPPTF [PCDHGA10] | 3.73 ± 0.17 | 3.9 ± 0.19 |  | 
28 | AHRIAAQTLLGTAKMLLHEGQHPA [PYCR3] | 2.97 ± 0.31 | 2.95 ± 0.42 |  | 
29 | SRDEAALPELLLGALPVGSNLTSN [RETREG3] | 4.19 ± 0.23 | 4.43 ± 0.28 |  | 
30 | FPTDAPYPTTLGKDRECQSQSLAL [ZNF8] | 4.07 ± 0.15 | 4.05 ± 0.31 |  | 
31 | DEEERRRRVFDVPIRRRRCSRLF [FBXO3] |  |  | 3.32 ± 0.61 | 3.73 ± 0.82
32 | KGKFSTDTKGKPTSRTQVYKPPAL [ZC2HC1A] | 3.77 ± 0.19 | 3.8 ± 0.15 |  | 
33 | GRNDLQQWIEVDARRLTRFTGVIT [CPXM2] | 2.43 ± 0.062 | 2.56 ± 0.12 |  | 
34 | ITTDNLQCRERREHPNLVRDHVET [TEKT4] | 4.35 ± 0.085 | 4.44 ± 0.17 |  | 
35 | TVGDLGIVRRRSRDVPESPQHAAD [YJU2B] | 5.08 ± 0.25 | 5.3 ± 0.17 |  | 
36 | KHLNASNPTEPATIIFTAAREGRE [TOR1AIP2] | 4.13 ± 0.2 | 4.22 ± 0.27 |  | 
37 | AADGPTVCCNPYHFSRLCGPESPP [SMAD6] | 3.65 ± 0.11 | 3.76 ± 0.24 |  | 
38 | RQAVAWLVAMHKAAKLLYESRDQ [ZFYVE21] |  |  | 2.95 ± 1.1 | 2.28 ± 0.3
39 | KTAATRYRQKKRAEQEALTGECKE [ATF4] | 4.95 ± 0.16 | 5.1 ± 0.094 |  | 
40 | RPATEAELLTCHSAEYVGHLRATE [HDAC6] | 4.1 ± 0.2 | 3.85 ± 0.19 |  | 
41 | PEAAAAQLRATAGSLILPPGPGGT [FCHO1] | 4.26 ± 0.41 | 4.26 ± 0.53 |  | 
42 | DLEAQMESLKEELLSLKQNHEQEV [KRT33B] | 4.95 ± 0.32 | 4.96 ± 0.22 |  | 
43 | LARKGSLKNGSMGSPVNQQPKKNN [FAM219A] | 4.85 ± 0.25 | 4.77 ± 0.065 |  | 
44 | QNRRAKLKRSHRESQFLMAKKNFN [HESX1] | 3.43 ± 0.24 | 3.48 ± 0.43 |  | 
